Where no end group is shown, it is not given here.
Biological target: T1, neuromedin-B preferring receptor (NMB-R) of C6 rodent glioblastoma cells (rodent), P24053
T1 chain: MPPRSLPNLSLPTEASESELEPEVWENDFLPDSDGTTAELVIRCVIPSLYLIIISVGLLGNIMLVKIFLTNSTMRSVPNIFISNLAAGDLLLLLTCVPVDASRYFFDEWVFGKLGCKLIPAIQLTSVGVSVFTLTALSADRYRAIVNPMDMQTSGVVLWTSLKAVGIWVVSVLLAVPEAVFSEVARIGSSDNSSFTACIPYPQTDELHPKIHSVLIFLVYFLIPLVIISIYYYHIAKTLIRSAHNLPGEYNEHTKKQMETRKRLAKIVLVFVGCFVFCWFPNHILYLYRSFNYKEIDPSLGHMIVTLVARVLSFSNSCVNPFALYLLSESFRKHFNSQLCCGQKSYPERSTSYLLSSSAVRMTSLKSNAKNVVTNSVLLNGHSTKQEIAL
Experiment: 125I-NMB competition, C6 cells

Binder: EQRYGNQWAVGHLM-NH2 (also: name truncated at 'p…', N-terminal modification unresolved) [p…-NH2]
- IC50: 3.36 nM
